From patent US20200079833A1 (AstraZeneca / MedImmune, published 2020)
Non-standard residues stand in square brackets, D forms with d. No end group written: not given here. αMeF = C[C@](N)(Cc1ccccc1)C(=O)O; αMeK = C[C@](N)(CCCCN)C(=O)O; αMeS = C[C@](N)(CO)C(=O)O; Aib = CC(C)(N)C(=O)O

T1: glucose-dependent insulinotropic peptide (gastric inhibitory polypeptide) receptor (human, UniProt P48546 22-466)
T1 sequence (looked up): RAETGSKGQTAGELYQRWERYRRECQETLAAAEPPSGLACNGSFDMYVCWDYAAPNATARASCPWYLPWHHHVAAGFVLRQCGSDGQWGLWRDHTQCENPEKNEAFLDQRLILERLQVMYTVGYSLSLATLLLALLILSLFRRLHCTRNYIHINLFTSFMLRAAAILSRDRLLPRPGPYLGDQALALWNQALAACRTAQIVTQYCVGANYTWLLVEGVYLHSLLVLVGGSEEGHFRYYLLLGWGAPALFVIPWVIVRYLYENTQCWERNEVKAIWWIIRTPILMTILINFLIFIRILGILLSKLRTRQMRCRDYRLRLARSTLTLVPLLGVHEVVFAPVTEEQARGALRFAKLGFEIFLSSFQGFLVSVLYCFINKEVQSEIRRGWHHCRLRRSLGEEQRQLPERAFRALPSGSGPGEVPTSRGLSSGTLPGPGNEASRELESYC

B1: SEQ ID NO 25 (peptide)
peptide: H[Aib]EGS[αMeF]TGDV[αMeS]S[αMeF]LEGEAA[αMeK]E[αMeF]IA[αMeF]VV[αMeK]GG-NH2
modifications: N-terminus assumed
SMILES: CC[C@H](C)[C@H](NC(=O)[C@](C)(Cc1ccccc1)NC(=O)[C@H](CCC(=O)O)NC(=O)[C@](C)(CCCCN)NC(=O)[C@H](C)NC(=O)[C@H](C)NC(=O)[C@H](CCC(=O)O)NC(=O)CNC(=O)[C@H](CCC(=O)O)NC(=O)[C@H](CC(C)C)NC(=O)[C@](C)(Cc1ccccc1)NC(=O)[C@H](CO)NC(=O)[C@](C)(CO)NC(=O)[C@@H](NC(=O)[C@H](CC(=O)O)NC(=O)CNC(=O)[C@@H](NC(=O)[C@](C)(Cc1ccccc1)NC(=O)[C@H](CO)NC(=O)CNC(=O)[C@H](CCC(=O)O)NC(=O)C(C)(C)NC(=O)[C@@H](N)Cc1c[nH]cn1)[C@@H](C)O)C(C)C)C(=O)N[C@@H](C)C(=O)N[C@@](C)(Cc1ccccc1)C(=O)N[C@H](C(=O)N[C@H](C(=O)N[C@@](C)(CCCCN)C(=O)NCC(=O)NCC(N)=O)C(C)C)C(C)C
B2: SEQ ID NO 26 (peptide)
peptide: H[Aib]EGS[αMeF]TADV[αMeS]S[αMeF]LEGEAA[αMeK]E[αMeF]IA[αMeF]VV[αMeK]GG-NH2
modifications: N-terminus assumed
SMILES: CC[C@H](C)[C@H](NC(=O)[C@](C)(Cc1ccccc1)NC(=O)[C@H](CCC(=O)O)NC(=O)[C@](C)(CCCCN)NC(=O)[C@H](C)NC(=O)[C@H](C)NC(=O)[C@H](CCC(=O)O)NC(=O)CNC(=O)[C@H](CCC(=O)O)NC(=O)[C@H](CC(C)C)NC(=O)[C@](C)(Cc1ccccc1)NC(=O)[C@H](CO)NC(=O)[C@](C)(CO)NC(=O)[C@@H](NC(=O)[C@H](CC(=O)O)NC(=O)[C@H](C)NC(=O)[C@@H](NC(=O)[C@](C)(Cc1ccccc1)NC(=O)[C@H](CO)NC(=O)CNC(=O)[C@H](CCC(=O)O)NC(=O)C(C)(C)NC(=O)[C@@H](N)Cc1c[nH]cn1)[C@@H](C)O)C(C)C)C(=O)N[C@@H](C)C(=O)N[C@@](C)(Cc1ccccc1)C(=O)N[C@H](C(=O)N[C@H](C(=O)N[C@@](C)(CCCCN)C(=O)NCC(=O)NCC(N)=O)C(C)C)C(C)C
B3: SEQ ID NO 27 (peptide)
peptide: H[Aib]EGS[αMeF]TDDV[αMeS]S[αMeF]LEGEAA[αMeK]E[αMeF]IA[αMeF]VV[αMeK]GG-NH2
modifications: N-terminus assumed
SMILES: CC[C@H](C)[C@H](NC(=O)[C@](C)(Cc1ccccc1)NC(=O)[C@H](CCC(=O)O)NC(=O)[C@](C)(CCCCN)NC(=O)[C@H](C)NC(=O)[C@H](C)NC(=O)[C@H](CCC(=O)O)NC(=O)CNC(=O)[C@H](CCC(=O)O)NC(=O)[C@H](CC(C)C)NC(=O)[C@](C)(Cc1ccccc1)NC(=O)[C@H](CO)NC(=O)[C@](C)(CO)NC(=O)[C@@H](NC(=O)[C@H](CC(=O)O)NC(=O)[C@H](CC(=O)O)NC(=O)[C@@H](NC(=O)[C@](C)(Cc1ccccc1)NC(=O)[C@H](CO)NC(=O)CNC(=O)[C@H](CCC(=O)O)NC(=O)C(C)(C)NC(=O)[C@@H](N)Cc1c[nH]cn1)[C@@H](C)O)C(C)C)C(=O)N[C@@H](C)C(=O)N[C@@](C)(Cc1ccccc1)C(=O)N[C@H](C(=O)N[C@H](C(=O)N[C@@](C)(CCCCN)C(=O)NCC(=O)NCC(N)=O)C(C)C)C(C)C
B4: SEQ ID NO 24 (peptide)
peptide: H[Aib]EGTFT[Aib]DV[Aib]SYLEGQAAKEFIAWLVKGR-NH2
modifications: N-terminus assumed
SMILES: CC[C@H](C)[C@H](NC(=O)[C@H](Cc1ccccc1)NC(=O)[C@H](CCC(=O)O)NC(=O)[C@H](CCCCN)NC(=O)[C@H](C)NC(=O)[C@H](C)NC(=O)[C@H](CCC(N)=O)NC(=O)CNC(=O)[C@H](CCC(=O)O)NC(=O)[C@H](CC(C)C)NC(=O)[C@H](Cc1ccc(O)cc1)NC(=O)[C@H](CO)NC(=O)C(C)(C)NC(=O)[C@@H](NC(=O)[C@H](CC(=O)O)NC(=O)C(C)(C)NC(=O)[C@@H](NC(=O)[C@H](Cc1ccccc1)NC(=O)[C@@H](NC(=O)CNC(=O)[C@H](CCC(=O)O)NC(=O)C(C)(C)NC(=O)[C@@H](N)Cc1c[nH]cn1)[C@@H](C)O)[C@@H](C)O)C(C)C)C(=O)N[C@@H](C)C(=O)N[C@@H](Cc1c[nH]c2ccccc12)C(=O)N[C@@H](CC(C)C)C(=O)N[C@H](C(=O)N[C@@H](CCCCN)C(=O)NCC(=O)N[C@@H](CCCNC(=N)N)C(N)=O)C(C)C
B5: SEQ ID NO 28 (peptide)
peptide: H[Aib]EGS[αMeF]TEDV[αMeS]S[αMeF]LEGEAA[αMeK]E[αMeF]IA[αMeF]VV[αMeK]GG-NH2
modifications: N-terminus assumed
SMILES: CC[C@H](C)[C@H](NC(=O)[C@](C)(Cc1ccccc1)NC(=O)[C@H](CCC(=O)O)NC(=O)[C@](C)(CCCCN)NC(=O)[C@H](C)NC(=O)[C@H](C)NC(=O)[C@H](CCC(=O)O)NC(=O)CNC(=O)[C@H](CCC(=O)O)NC(=O)[C@H](CC(C)C)NC(=O)[C@](C)(Cc1ccccc1)NC(=O)[C@H](CO)NC(=O)[C@](C)(CO)NC(=O)[C@@H](NC(=O)[C@H](CC(=O)O)NC(=O)[C@H](CCC(=O)O)NC(=O)[C@@H](NC(=O)[C@](C)(Cc1ccccc1)NC(=O)[C@H](CO)NC(=O)CNC(=O)[C@H](CCC(=O)O)NC(=O)C(C)(C)NC(=O)[C@@H](N)Cc1c[nH]cn1)[C@@H](C)O)C(C)C)C(=O)N[C@@H](C)C(=O)N[C@@](C)(Cc1ccccc1)C(=O)N[C@H](C(=O)N[C@H](C(=O)N[C@@](C)(CCCCN)C(=O)NCC(=O)NCC(N)=O)C(C)C)C(C)C
B6: SEQ ID NO 29 (peptide)
peptide: H[Aib]EGS[αMeF]TTDV[αMeS]S[αMeF]LEGEAA[αMeK]E[αMeF]IA[αMeF]VV[αMeK]GG-NH2
modifications: N-terminus assumed
SMILES: CC[C@H](C)[C@H](NC(=O)[C@](C)(Cc1ccccc1)NC(=O)[C@H](CCC(=O)O)NC(=O)[C@](C)(CCCCN)NC(=O)[C@H](C)NC(=O)[C@H](C)NC(=O)[C@H](CCC(=O)O)NC(=O)CNC(=O)[C@H](CCC(=O)O)NC(=O)[C@H](CC(C)C)NC(=O)[C@](C)(Cc1ccccc1)NC(=O)[C@H](CO)NC(=O)[C@](C)(CO)NC(=O)[C@@H](NC(=O)[C@H](CC(=O)O)NC(=O)[C@@H](NC(=O)[C@@H](NC(=O)[C@](C)(Cc1ccccc1)NC(=O)[C@H](CO)NC(=O)CNC(=O)[C@H](CCC(=O)O)NC(=O)C(C)(C)NC(=O)[C@@H](N)Cc1c[nH]cn1)[C@@H](C)O)[C@@H](C)O)C(C)C)C(=O)N[C@@H](C)C(=O)N[C@@](C)(Cc1ccccc1)C(=O)N[C@H](C(=O)N[C@H](C(=O)N[C@@](C)(CCCCN)C(=O)NCC(=O)NCC(N)=O)C(C)C)C(C)C

The binders below were run against T1, glucose-dependent insulinotropic … (assay: cell-based or functional assay).

Primary assay EC50 (cAMP), n1 [nM] | Primary assay EC50 (cAMP), n2 [nM] | Binder
81 | 81 | HXEGTFTSDVSSYLEGQAAKEFIAWLVKGRK (Aib 2; K(ε-γE-Palmitoyl) after R30; C-terminal amide) [SEQ ID NO 5]
100 | 100 | B1
100 | 100 | B2
100 | 100 | B3
740 | 740 | B4
100 | 100 | B5
100 | 100 | B6

What follows are binders tested against glucagon receptor (human, UniProt P47871 26-477) (assay: cell-based or functional assay).
glucagon receptor, sequence (P47871 26-477): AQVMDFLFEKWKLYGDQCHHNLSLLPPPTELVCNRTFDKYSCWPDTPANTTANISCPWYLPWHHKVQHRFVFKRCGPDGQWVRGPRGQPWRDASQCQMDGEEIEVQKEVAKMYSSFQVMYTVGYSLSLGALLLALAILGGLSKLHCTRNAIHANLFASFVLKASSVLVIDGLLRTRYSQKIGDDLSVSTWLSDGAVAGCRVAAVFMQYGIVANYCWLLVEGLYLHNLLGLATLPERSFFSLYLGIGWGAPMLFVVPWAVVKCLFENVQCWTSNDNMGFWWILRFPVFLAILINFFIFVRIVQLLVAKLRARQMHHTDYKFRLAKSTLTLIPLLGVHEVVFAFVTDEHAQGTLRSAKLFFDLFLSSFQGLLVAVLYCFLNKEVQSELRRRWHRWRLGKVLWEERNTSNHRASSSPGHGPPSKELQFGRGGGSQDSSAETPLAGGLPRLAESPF

Primary assay EC50 (cAMP), n1 [nM] | Primary assay EC50 (cAMP), n2 [nM] | Binder
81 | 81 | HXEGTFTSDVSSYLEGQAAKEFIAWLVKGRK (Aib 2; K(ε-γE-Palmitoyl) after R30; C-terminal amide) [SEQ ID NO 5]
100 | 22 | B1
100 | 30 | B2
100 | 40 | B3
740 | 740 | B4
100 | 100 | B5
100 | 100 | B6

What follows are binders tested against GLP-1 receptor (human, UniProt P43220 24-463) (assay: cell-based or functional assay).

Primary assay EC50 (cAMP), Mean pM GLP-1R [pM] | Primary assay EC50 (cAMP), n1 [nM] | Primary assay EC50 (cAMP), n2 [nM] | Binder
6.5 | 0.0075 | 0.0055 | HXEGTFTSDVSSYLEGQAAKEFIAWLVKGRK (Aib 2; K(ε-γE-Palmitoyl) after R30; C-terminal amide) [SEQ ID NO 5]
544 | 0.5 | 0.59 | B1
123 | 0.099 | 0.15 | B2
446 | 0.42 | 0.48 | B3
5600 | 3.3 | 7.9 | B4
4620 | 4.6 | 4.7 | B5
801 | 0.78 | 0.82 | B6
